“Also recorded” adds a separate entry of the source.
Legend:
Toxicity on injection = assay type: in vivo; settings: injections of 20 mg/kg
[1] = system: chorioallantoic membrane (CAM) vascularization; assay: Treatments on the chorioallantoic membrane (CAM), fluorescein angiography; assay type: in vivo, chicken embryo; settings: impregnated sponge on CAM at ED9; oligopeptide 250 μg/mL (9 hours), VEGF 10 ng/mL; listed as oligopeptide according to the invention
Description: In fact, TSP-1 is known for inducing the apoptosis of endothelial cells. […] It is also a decisive process under certain physiological and pathological conditions (cancers in particular). This mechanism is controlled by numerous factors having either an inhibitor potential or an activator. So as to evaluate the main properties of these in vivo factors, the most common model is the CAM (chorioallantoic membrane) model from the chicken embryo (Ribatti et al., 2000). It offers the advantage of making it possible to test the pro- or anti-angiogenic factors during an active angiogenesis phase between the embryonic stages 4j and 10j. The major effects of the various molecules can therefore be evaluated in vivo. The model of the CAM can also be used in experimental tumor development. The grafting of human cancer cells onto the surface of the CAM is carried out in the 9-day embryonic stage. Three days after the grafting at ED12, the formation of a tumor is visible at the surface of the CAM. The latter can be treated topically during the 48 hours that follow this stage, and the tumors are sampled at ED14j. The fertilized eggs (Haas Poultry Farm, Strasbourg, France) are kept for 24 hours at 18° C. before the incubation is started up. […] The embryonic stages are determined from tables of Hamburger and Hamilton (H and H, 1951). […]

With “—W—S-G-W—S—S—C—S—R—S—C-G- (WSGWSSCSRSCG; Oligopeptide derived from SCO-Spondin) [NX]” the Toxicity (Toxicity on injection) was “no toxicity” and the “Vascularization / microvascularization of the CAM (in words)” value [1] was “inhibition of vascularization; also recorded: comparable to that of the Bevacizumab”.

— patent publication US20190255144A1, “SPECIFIC OLIGOPEPTIDES AS ANTI-ANGIOGENIC DRUGS” (NEURONAX, priority 2014, published 2019)
